These results are taken from patent publication US20210145976A1.

Residue numbers refer to the chain shown, from its start.

First the molecules themselves.
B1: SEQ ID NO 173 (designed binder)
chain: MLPAPKNLVVSRVTEDSARLSWTAPDAAFDSFTIHYRELYVQAIVLTVPGSERSYDLTGLKPGTEYLVMIPGVKGGPTSVPLSAIFTT
B2: SEQ ID NO 185 (designed binder)
chain: MLPAPKNLVVSRVTEDSARLSWTAPDAAFDSFEIDYDELAIYGEAIVLTVPGSERSYDLTGLKPGTEYGVMIIGVKGGLPSDPLSAIFTT
B3: SEQ ID NO 194 (designed binder)
chain: B2 chain with G69R, M71F, I73Y, L79W, P80T, D82W, A86T
B4: SEQ ID NO 176 (designed binder)
chain: MLPAPKNLVVSRVTEDSARLSWTAPDAAFDSFPIAYAEPRPDGEAIVLTVPGSERSYDLTGLKPGTEYSVGIHGVKGGHDSSPLSAIFTT
B5: SEQ ID NO 45 (designed binder)
chain: B4 chain with P33A, A35Y, A37L, P39S, R40Y, D42E, S69W, H73D, H79T, D80W
B6: SEQ ID NO 179 (designed binder)
chain: B4 chain with P33Y, S69P, G71P, H73P, H79P, D80G
B7: SEQ ID NO 178 (designed binder)
chain: B4 chain with P33D, R40I, D42R, G71L, H79R, D80R, S82V
B8: SEQ ID NO 188 (designed binder)
chain: B4 chain with P33L, A35P, P39T, R40S, D42S, G71L, H79K, D80L, S82L
B9: SEQ ID NO 181 (designed binder)
chain: B4 chain with R12H, G71L, H79L, D80L
B10: SEQ ID NO 180 (designed binder)
chain: MLPAPKNLVVSRVTEDSARLSWTAPDAAFDSFEISYYEMRGYGEAIVLTVPGSERSYDLTGLKPGTEYSVLIHGVEGGDYSSPLSAISTT
B11: SEQ ID NO 168 (designed binder)
chain: MLPAPKNLVVSRVTEDSARLSWTTPDAAFDSFFIGYLEPYPPGEAIVLTVPGSERSYDLTGLKPGTEYVVSIQGVKGGKPSDPLSAIFTT
B12: SEQ ID NO 174 (designed binder)
chain: B11 chain with T24A, Y40Q, V69K, S71V, K79T, D82E
B13: SEQ ID NO 182 (designed binder)
chain: B11 chain with T24A, K79T, D82Q
B14: SEQ ID NO 175 (designed binder)
chain: B11 chain with T24A, Y40Q, V69S, S71V, K79F
B15: SEQ ID NO 177 (designed binder)
chain: B11 chain with T24A, Y40Q, V69N, S71T, K79R, P80A, D82G
B16: SEQ ID NO 192 (designed binder)
chain: B11 chain with T24A, P25L, Y40Q, V69N, S71T, K79F, D82M
B17: SEQ ID NO 44 (designed binder)
chain: MLPAPKNLVVSRVTEDSARLSWTAPDAAFDSFYIEYYESLPDGEAIVLTVPGSERSYDLTGLKPGTEYAVYIYGVKGGYYSRPLSAIFTT
B18: SEQ ID NO 183 (designed binder)
chain: MLPAPKNLVVSRVTEDSARLSWTAPDAAFDSFLIPYAETSPSGEAIVLTVPGSERSYDLTGLKPGTEYSVLIHGVKGGRPSNPLVAAFTT
B19: SEQ ID NO 190 (designed binder)
chain: MLPAPKNLVVSRVTEDSARLSWTAPDAAFDSFFIGYPEYPATGEAITLFVPGSERSYDLTGLKPGTEYNVVIQGVKGGRPSNPLVVAFTT
B20: SEQ ID NO 187 (designed binder)
chain: MLPAPKNLVVSRVTEDSARLSWTAPDAAFDSFVIEYFEFVGYGEAIVLTVPGSERSYDLTGLKPGTEYSVGIYGVKGGKLSPPLSAIFTT
B21: SEQ ID NO 46 (designed binder)
chain: B20 chain with V33T, V40T, Y42T, S69Y, G71S, K79L, P82A
B22: SEQ ID NO 195 (designed binder)
chain: MLPAPKNLVVSRVTEDSARLSWTAPDAAFDSFPIEYDEIPFWGEAIVLTVPGSERSYDLTGLKPGTEYRVWIHGVKGGNSSWPLSAIFTT
B23: SEQ ID NO 172 (designed binder)
chain: MLPAPKNLVVSRVTEDSARLSWTAPDAAFDSFPIEYDEWWALGEAITLIVPASERSYDLTGLKPGTEYVVKIHGVKGGQRSYPLIAFFTT
B24: SEQ ID NO 189 (designed binder)
chain: MLPAPKNLVVSRVTEDSARLSWTAPDAAFDSFHEWVYFGEAIVLTVPGSERSYDLTGLKPGTEYFVDIWGVKGGTVSKPLSAIFTT
B25: SEQ ID NO 191 (designed binder)
chain: MLPAPENLVVSRVTEDSARLSWTAPDAAFDSFEITYEENWRRGEAIVLTVPGSERSYDLTGPKPGTEYIVIIQGVKGGAESWPLSAIFTT
B26: SEQ ID NO 171 (designed binder)
chain: MLPAPKNLVVSRVTEDSARLSWTAPDAAFDSFAIRYLEWWDVGEAIVLTVPGSERSYDLTGLKPGTEYLVEIKGVKGGKFSYPLSAIFTT
B27: SEQ ID NO 193 (designed binder)
chain: MLPAPKNLVVSRVTEDSARLSWTAPDAAFDSFTIWYAEAVGNGEAIVLTVPGSERSYDLTGLKPGTEYWVDIWGVKGGEFSSPLSAIFTT
B28: SEQ ID NO 170 (designed binder)
chain: MLPAPKNLVVSRVTEDSARLSWTAPDAAFDSFFIGYPEYPATGEAIVLTVPGSERSYDLTGLKPGTEYFVDINGVKGGSLSYPLSAIFTT
B29: SEQ ID NO 196 (designed binder)
chain: MLPAPKNLVVSRVTEDSARLSWTAPDAAFDSFNIHYVEWWVLGEAIVLTVPGSERSYDLTGLKPGTEYPVYIYGVKGGPKSIPLSAIFTT
B30: SEQ ID NO 186 (designed binder)
chain: MLPAPKNLVVSRVTEDSARLSWTAPDAAFDSFFIGYLESAEAIVLTVPGSERSYDLTGLKPGTEYLVTIQGVKGGIASDPLSAIFTT

Chain of human serum albumin (human) (P02768 25-609 limits assumed): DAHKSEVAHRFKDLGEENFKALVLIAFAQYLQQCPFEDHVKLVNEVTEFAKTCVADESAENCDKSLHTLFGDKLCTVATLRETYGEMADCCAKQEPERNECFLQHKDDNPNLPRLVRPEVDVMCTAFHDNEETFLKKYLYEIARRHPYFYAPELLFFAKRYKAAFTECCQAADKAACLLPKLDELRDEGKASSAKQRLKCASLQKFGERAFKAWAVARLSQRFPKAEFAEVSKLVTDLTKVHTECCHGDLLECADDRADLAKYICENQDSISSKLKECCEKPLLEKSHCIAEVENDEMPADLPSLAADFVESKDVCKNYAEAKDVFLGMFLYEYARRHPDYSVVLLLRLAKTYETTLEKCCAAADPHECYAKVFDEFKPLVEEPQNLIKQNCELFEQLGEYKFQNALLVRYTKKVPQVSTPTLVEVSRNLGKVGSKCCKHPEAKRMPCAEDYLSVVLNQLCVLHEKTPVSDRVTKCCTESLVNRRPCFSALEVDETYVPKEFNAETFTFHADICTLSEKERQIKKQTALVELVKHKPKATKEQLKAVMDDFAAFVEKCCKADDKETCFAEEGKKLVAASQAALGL

The experiment concerns the target human serum albumin (human) (UniProt P02768). The experiment in a line: screening ELISA. On the technique in general: In an ELISA, binding on a coated surface is turned into a signal by an enzyme label.
In turn, B1 yielded an HSA of 20800. As for B2, the HSA stood at 9950. As for B3, the figure is 17800.

Molecule B4 yielded an HSA of 10400. As for B5, the figure is 2880. B6: the HSA is 74700. As for B7, the figure is 2250; as for B8, 3350; as for B9, 6000. Consider B10, for which the HSA was found to be 33500. Then B11, with 1950; and B12, with 2200. Consider B13, for which the HSA came out at 2950.

In turn, B14 returned an HSA of 1600. Molecule B15 showed an HSA of 2450. Turning to B16, the HSA was 4100. Then B17, with 3920; and B18, with 10700; and B19, with 4900. In turn, B20 showed an HSA of 7250. As for B21, the figure is 3040; as for B22, 90200; as for B23, 3700.

Consider B24, for which the HSA was 67500. Take B25: the HSA was 34000.

Take B26: the HSA was 1900. As for B27, the figure is 2500; as for B28, 16800; as for B29, 34600.

Consider B30, for which the HSA was 1850.
